Residue numbers refer to the chain shown, from its start.

Data set [1] deals with T1, RIG-I (full-length) (UniProt O95786 O95786:1-925).
T1 sequence: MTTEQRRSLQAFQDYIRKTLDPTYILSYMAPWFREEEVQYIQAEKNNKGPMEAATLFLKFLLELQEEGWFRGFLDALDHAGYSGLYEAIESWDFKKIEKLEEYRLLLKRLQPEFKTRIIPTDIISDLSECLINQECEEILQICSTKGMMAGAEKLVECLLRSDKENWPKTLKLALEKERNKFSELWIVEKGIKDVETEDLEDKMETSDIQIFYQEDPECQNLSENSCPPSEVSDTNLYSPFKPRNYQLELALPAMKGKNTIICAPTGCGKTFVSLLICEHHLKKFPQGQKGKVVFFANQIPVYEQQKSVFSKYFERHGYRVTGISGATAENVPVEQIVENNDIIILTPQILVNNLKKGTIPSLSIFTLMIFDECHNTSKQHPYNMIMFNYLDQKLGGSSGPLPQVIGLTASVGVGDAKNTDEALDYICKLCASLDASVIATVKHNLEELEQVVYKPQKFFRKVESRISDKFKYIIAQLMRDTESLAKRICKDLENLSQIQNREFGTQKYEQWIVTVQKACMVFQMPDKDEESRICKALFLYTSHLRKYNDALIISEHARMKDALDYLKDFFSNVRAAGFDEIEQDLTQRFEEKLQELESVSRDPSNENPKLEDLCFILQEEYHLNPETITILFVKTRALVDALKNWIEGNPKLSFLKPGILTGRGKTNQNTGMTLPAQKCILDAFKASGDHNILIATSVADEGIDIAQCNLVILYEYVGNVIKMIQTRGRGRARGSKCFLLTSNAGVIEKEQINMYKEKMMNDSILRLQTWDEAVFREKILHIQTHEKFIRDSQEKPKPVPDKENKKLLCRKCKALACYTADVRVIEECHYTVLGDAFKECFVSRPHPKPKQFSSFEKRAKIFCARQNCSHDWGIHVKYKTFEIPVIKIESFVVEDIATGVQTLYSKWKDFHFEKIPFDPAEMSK
Put plainly: footprint; limited trypsin proteolysis, RD and helicase+CARDs protected; AMP-PNP.

Data set [2] addresses T1, RIG-I (full-length). The experiment in a line: EMSA; EC50 over all constructs 2.28-7.31 pmol, individual value in figure only; high signaling.
For data set [3], the target named is T1, RIG-I (full-length). The experiment in a line: footprint; limited trypsin proteolysis, RD and helicase+CARDs protected; EMSA not possible. As for the experimental part: RIG-I is maintained in an auto-repressed conformation in uninfected cells where the CARDs interact with either the C-terminal repressor domain (RD), the helicase insertion domain (Hel2i), or both domains. […] To further assess RNA interactions with RIG-I, and to determine how HCV PAMP RNA interacts with the helicase domain and RD of RIG-I, limited-trypsin proteolysis of RIG-I/RNA complexes were conducted for nine RNA constructs selected to represent a range of PAMP activity (FIG. 3). RIG-I is highly sensitive to trypsin proteolysis in the absence of PAMP RNA; however, upon binding to an RNA ligand RIG-I undergoes conformational changes that protect the RD and other RNA-bound domains from trypsin digestion.
Various amounts of RNA (0-10 pmol) were mixed with 30 pmol purified RIG-I protein, 2 μl of 5× reaction buffer (20 mM Tris-HCl, pH 8.0; 1.5 mM MgCl₂; 1.5 mM DTT; 70 mM KCl), 0.67 μl AMP-PNP (10 mg/ml), and nuclease-free water up to 10 μl total volume. Reactions were incubated for 5 minutes at room temperature. […] SDS-PAGE Laemmli sample buffer (Bio-Rad) was then added to the samples and reaction products were analyzed by SDS-PAGE followed by silver stain using the SilverQuest silver staining kit (Invitrogen) as per the manufacturer's instructions.
(Mobility shift assays separate free from complexed probe on a gel.)

Data set [4] addresses T1, RIG-I (full-length). Put plainly: EMSA; EC10 1.42 pmol RIG-I; >50% of RNA bound at 8 pmol; 10 pmol RNA, 20 mM Tris pH 8.0, 1.5 mM MgCl2, 37 C. Particulars: stem-loops.
For data set [5], the target named is T1, RIG-I (full-length). The experiment in a line: EMSA; no binding at 0-10 pmol RIG-I; limited RD protection in trypsin assay. Particulars: stem-loops.

B1: JFH1 pU/UC (ssRNA)
RNA: ACUGUUCCUUUUUUUUUUUUUUUUUUUUUUUUUUUUUUUUUUUUUUUUUUUCUUUUUUUUUUUUUUCCCUCUUUCUUCCCUUCUCAUCUUAUUCUACUUUCUUUCUU
modifications: 5'-triphosphate; three G at 5' end
In the case of B1, the binding result in data set [1] is listed as “binds”.

B2: Con1 pU/UC (ssRNA)
RNA: GGCCAUCCUGUUUUUUUCCCUUUUUUUUUUUCUUUUUUUUUUUUUUUUUUUUUUUUUUUUUUUUUUCUCCUUUUUUUUUCCUCUUUUUUUCCUUUUCUUUCCUUU
modifications: 5'-triphosphate; three G at 5' end
Consider B2, for which the binding result in data set [2] is reported as “binds”.

B3: poly-U 62-C (ssRNA)
RNA: UUUUUUUUUUUUUUUUUUUUUUUUUUUUUUUUUUUUUUUUUUUUCUUUUUUUUUUUUUUUUU
modifications: 5'-triphosphate; three G at 5' end
Take B3: the binding result in data set [1] is recorded as “binds”.

B4: poly-U 62 (ssRNA)
RNA: B3 RNA with C45U
modifications: 5'-triphosphate; three G at 5' end
Take B4: the binding result in data set [3] was “binds”.

B5: U17core (ssRNA)
RNA: GGCCAUCCUGUUUUUUUCCCUUUUUUUUUUUCUUUUUUUUUUUUUUUUUCUCCUUUUUUUUUCCUCUUUUUUUCCUUUUCUUUCCUUUCCCCCCCCCCCCCCCCC
modifications: 5'-triphosphate; three G at 5' end
Take B5: the binding result in data set [1] is given as “binds”.

B6: X-region-U34 (ssRNA)
RNA: GGGUGGCUCCAUCUUAGCCCUAGUCACGGCUAGCUGUGAAAGGUCCGUGAGCUUUUUUUUUUUUUUUUUUUUUUUUUUUUUUUUUUCGCUUGACUGCAGAGAGUGCUGAUACUGGCCUCUCUGCAGAUCAAGU
modifications: 5'-triphosphate
In data set [4], B6 displayed an EC50 of less than 8 pmol.

B7: X-region (ssRNA)
RNA: GGUGGCUCCAUCUUAGCCCUAGUCACGGCUAGCUGUGAAAGGUCCGUGAGCCGCUUGACUGCAGAGAGUGCUGAUACUGGCCUCUCUGCAGAUCAAGU
modifications: 5'-triphosphate
For B7, the binding result in data set [5] is recorded as “no binding”.

Values taken from patent publication US20200276294, “Methods and Compositions for Activation of Innate Immune Responses Through RIG-I Like Receptor Signaling” (University of Washington through its Center for …, published 2020).
